One molecule from publication PMC4358366, “Identification of ‘erasers’ for lysine crotonylated histone marks using a chemical proteomics approach” (eLife, 2014) can be followed below.

The test has as its target T1, Sirt3 F180L (Homo sapiens, UniProt Q9NTG7, F180L).
T1 construct: His tag (from pTrcHis 2C vector; nickel column purification); made in house; host or cells: E. coli Rosetta
T1 sequence (Q9NTG7 102-399 F180L): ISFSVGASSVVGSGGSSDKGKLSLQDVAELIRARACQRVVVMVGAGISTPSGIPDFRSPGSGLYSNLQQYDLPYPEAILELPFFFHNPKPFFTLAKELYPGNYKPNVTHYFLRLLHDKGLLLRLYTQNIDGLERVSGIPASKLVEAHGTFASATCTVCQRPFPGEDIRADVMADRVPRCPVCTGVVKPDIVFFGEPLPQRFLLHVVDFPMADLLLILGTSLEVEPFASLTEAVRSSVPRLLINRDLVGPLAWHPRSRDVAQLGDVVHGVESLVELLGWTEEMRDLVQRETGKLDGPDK
The experiment in a line: Steady state kinetics of deacetylation by Sirt3 F180L mutant. Format: biochemical. To be noted: F180L vs wild-type Sirt3 (H3K4Ac, Figure 4—figure supplement 6). The protocol: Plasmids of Sirt1 (193–747), Sirt2 (36–356), Sirt5 (34–302), and Sirt6 (1–314) for Escherichia coli expression were generated as previously described ([Finnin et al., 2001]; [Du et al., 2011]; [Hubbard et al., 2013]; [Jiang et al., 2013]). […] Sirt3 mutant F180L was generated by site directed mutagenesis. All of the proteins were expressed in E. coli Rosetta cells. To induce expression of target proteins, isopropyl β-D-1-thiogalactopyranoside was added to a final concentration of 0.2 mM when OD600 reached 0.6, and the culture was grown at 15 °C (Sirt3 at 25 °C) for 16–18 hr. Cells were harvested and resuspended in lysis buffer A (50 mM Tris–HCl, pH 7.5, 500 mM NaCl, 1 mM PMSF, and Roche EDTA free protease inhibitors, for Sirt1, Sirt2, and Sirt6) or buffer B (50 mM Tris–HCl, pH 7.5, 150 mM NaCl, 1 mM PMSF, and Roche EDTA free protease inhibitors, for Sirt3 and Sirt5). […]
Enzyme was incubated with different concentrations of corresponding peptides bearing two tryptophans at the C terminus (20, 40, 60, 80, 100, 200, and 500 μM) and 1.0 mM NAD in 20 mM Tris–HCl buffer (pH 7.5) containing 1 mM DTT in 25 μL reaction at 37°C for a certain period of time within the initial linear range. […] Samples were then analyzed by HPLC with a Vydac 218TP C18 column (4.6 mm×250 mm, 5 μm; Grace Davison). […]

B1: Sirt3 F180L: Sirt3 mutant with Phe180 mutated to leucine (protein, UniProt Q9NTG7 1-399, looked up, variant F180L)
chain: MAFWGWRAAAALRLWGRVVERVEAGGGVGPFQACGCRLVLGGRDDVSAGLRGSHGARGEPLDPARPLQRPPRPEVPRAFRRQPRAAAPSFFFSSIKGGRRSISFSVGASSVVGSGGSSDKGKLSLQDVAELIRARACQRVVVMVGAGISTPSGIPDFRSPGSGLYSNLQQYDLPYPEAILELPFFFHNPKPFFTLAKELYPGNYKPNVTHYFLRLLHDKGLLLRLYTQNIDGLERVSGIPASKLVEAHGTFASATCTVCQRPFPGEDIRADVMADRVPRCPVCTGVVKPDIVFFGEPLPQRFLLHVVDFPMADLLLILGTSLEVEPFASLTEAVRSSVPRLLINRDLVGPLAWHPRSRDVAQLGDVVHGVESLVELLGWTEEMRDLVQRETGKLDGPDK
As to B1, the “decrease in deacetylation activity caused by F180L mutation” value is recorded as “about a two-fold decrease”.
